From patent US6190659A, “Bacterial plasmin binding protein and methods of use thereof” (priority 1996, dated 2001) come the findings set out here.

The test system of this data set is O=C(O)C(CO)OP(=O)(O)O. The data set can be described thus: Enolase single enzyme assay: conversion of 2-phosphoglycerate to phosphoenolpyruvate, absorbance at 240 nm. Type of data set: biochemical. As to conditions: 7.7 mM KCl. The source says: FIG. 7: Michaelis-Menten plot depicting the change in absorbance at 240 nm/minute as a function of the concentration of 2-phosphoglycerate (mM) as catalyzed by the plasmin binding protein. The change in absorbance is due to the conversion of 2-phosphoglycerate to phosphoenolpyruvate. Conditions as described in Example 1.
FIG. 8: Double-reciprocal plot depicting the change in the reciprocal of the absorbance at 240 nm/minute as a function of the reciprocal of the concentration of 2-phosphoglycerate (mM) as catalyzed by the plasmin binding protein. The change in absorbance is due to the conversion of 2-phosphoglycerate to phosphoenolpyruvate. Conditions as described in Example 1.
The molecular weight of the plasmin binding protein for one particular embodiment of the present invention has been determined to be approximately 45 kDa by SDS-PAGE.
(b) For the kinetic studies, the single enzyme assay was used, involving only the conversion of 2-phosphoglycerate to phosphoenolpyruvate by enolase. This simpler reaction avoids possible interactions of the effectors with the other enzymes. The reaction was performed at 30° C. in 100 mM HEPES buffer, pH 7.0, containing 10 mM MgSO4, 3.2 mM EDTA and 7.7 mM KCl and varying concentrations of 2-phosphoglycerate (0.19-7.5 mM). The change in absorbance/min was monitored at 240 nm. […] Michaelis-Menten and Lineweaver-Burke plots were drawn from the data obtained using 5 μg of SEN and varying concentrations of 2-phosphoglycerate (FIGS. 7 and 8). […] A concentration-dependent increase in the enolase activity was also found for the intact, washed streptococci (FIG. 5).

Setting [1] is: other: 0.1 M Hepes pH 7.0, 10 mM MgSO4, 3.2 mM EDTA, 30° C.
Where [2] appears, read: other: 30° C., 100 mM HEPES pH 7.0, 10 mM MgSO4, 3.2 mM EDTA, 5 μg SEN, 2-phosphoglycerate 0.19-7.5 mM, Michaelis-Menten and Lineweaver-Burke plots.

In general, Km refers to the concentration of substrate that gives half-maximal velocity. “streptococcal surface enolase (SEN), 45 kDa plasmin binding protein purified from group A streptococci type M6 strain D471, N-terminal sequence SEQ ID NO: 1 (Streptococcus pyogenes MGAS10394)”: under setting [1], the Km turned out to be 1500 µM and the Vmax is 270 μmol per minute-mg protein. Besides, under setting [2], the Km came out at 1500 µM and the Vmax is 270 μmol per minute-mg protein.
